# Article PMC12848141
# B1: YTHDF2: T49A (protein)
# parent chain: MSASSLLEQRPKGQGNKVQNGSVHQKDGLNDDDFEPYLSPQARPNNAYTAMSDSYLPSYYSPSIGFSYSLGEAAWSTGGDTAMPYLTSYGQLSNGEPHFLPDAMFGQPGALGSTPFLGQHGFNFFPSGIDFSAWGNNSSQGQSTQSSGYSSNYAYAPSSLGGAMIDGQSAFANETLNKAPGMNTIDQGMAALKLGSTEVASNVPKVVGSAVGSGSITSNIVASNSLPPATIAPPKPASWADIASKPAKQQPKLKTKNGIAGSSLPPPPIKHNMDIGTWDNKGPVAKAPSQALVQNIGQPTQGSPQPVGQQANNSPPVAQASVGQQTQPLPPPPPQPAQLSVQQQAAQPTRWVAPRNRGSGFGHNGVDGNGVGQSQAGSGSTPSEPHPVLEKLRSINNYNPKDFDWNLKHGRVFIIKSYSEDDIHRSIKYNIWCSTEHGNKRLDAAYRSMNGKGPVYLLFSVNGSGHFCGVAEMKSAVDYNTCAGVWSQDKWKGRFDVRWIFVKDVPNSQLRHIRLENNENKPVTNSRDTQEVPLEKAKQVLKIIASYKHTTSIFDDFSHYEKRQEEEESVKKERQGRGK
# B2: YTHDF2: TMG plus glucose (protein)
# parent chain: MSASSLLEQRPKGQGNKVQNGSVHQKDGLNDDDFEPYLSPQARPNNAYTAMSDSYLPSYYSPSIGFSYSLGEAAWSTGGDTAMPYLTSYGQLSNGEPHFLPDAMFGQPGALGSTPFLGQHGFNFFPSGIDFSAWGNNSSQGQSTQSSGYSSNYAYAPSSLGGAMIDGQSAFANETLNKAPGMNTIDQGMAALKLGSTEVASNVPKVVGSAVGSGSITSNIVASNSLPPATIAPPKPASWADIASKPAKQQPKLKTKNGIAGSSLPPPPIKHNMDIGTWDNKGPVAKAPSQALVQNIGQPTQGSPQPVGQQANNSPPVAQASVGQQTQPLPPPPPQPAQLSVQQQAAQPTRWVAPRNRGSGFGHNGVDGNGVGQSQAGSGSTPSEPHPVLEKLRSINNYNPKDFDWNLKHGRVFIIKSYSEDDIHRSIKYNIWCSTEHGNKRLDAAYRSMNGKGPVYLLFSVNGSGHFCGVAEMKSAVDYNTCAGVWSQDKWKGRFDVRWIFVKDVPNSQLRHIRLENNENKPVTNSRDTQEVPLEKAKQVLKIIASYKHTTSIFDDFSHYEKRQEEEESVKKERQGRGK
# Tests used:
# [1] = O-GlcNAc at T49
# OGT [2] = target: OGT (UniProt O15294); assay: co-IP of HA-YTHDF2 and Myc-OGT; conditions: reference: HA-YTHDF2 wild type; sites S39
# OGT [3] = target: OGT (UniProt O15294); assay: co-IP in H1299 cells; conditions: reference: YTHDF2 wild type; sites S39
# [4] = anti-HA IP, anti-ubiquitin blot, 293T, MG132; conditions: glycan lost; control: HA-YTHDF2-WT
# [5] = anti-ubiquitin blot, H1299; conditions: glycan lost; control: HA-YTHDF2-WT
# anti-pS39 blot, H1299 = conditions: glycan lost; control: HA-YTHDF2-WT
# [6] = CHX pulse-chase, protein remaining, H1299; conditions: glycan lost; control: HA-YTHDF2-WT
# [7] = CHX pulse-chase, protein remaining, HEK-293T; conditions: glycan lost; control: HA-YTHDF2-WT
# [8] = anti-HA IP, anti-pS39 blot, 293T
molecule,measurement,setting,value
YTHDF2: OGA overexpression,other,[1],decreases
YTHDF2 (from UniProt Q9Y5A9) HA-YTHDF2-S39A,binding against the reference,OGT [2],stronger
"YTHDF2: TMG plus glucose (OGA inhibition, raises O-GlcNAcylation)",other,[1],decreases
YTHDF2 (from UniProt Q9Y5A9) YTHDF2-S39A,binding against the reference,OGT [3],stronger
YTHDF2: Flag-OGA overexpression,other,[1],"decreases, YTHDF2 ubiquitination, Ub/HA ratio ~0.5 vs 1.0 without OGA (read from plot, P < 0.05)"
B1,other: ubiquitination,[4],decreases
same,other: ubiquitination,[5],decreases
same,other: Ser-39 phosphorylation,"anti-pS39 blot, H1299",increases
same,degradation_or_half_life,[6],increases
same,degradation_or_half_life,[7],increases
same,other: Ser-39 phosphorylation,"[8]; glycan lost, control: HA-YTHDF2-WT",increases
B2,other: Ser-39 phosphorylation,"[8]; glycan gained, control: untreated cells",decreases
